Experimental data reported in the DeepSol protein solubility set.

Assay: soluble on expression in E. coli; label from the status in PepcDB or PDB records
With “MAHHHHHHMQQQQQVPVGLQLMRQPYRATAEQFQRFIVGLDAVLNQWTALHLVSQHCDLSALTSMYRELVSWFQKDGEVYSDDLEIFFENFFGEARSVIVEDDSMKEVGDVLHDMYCRCCQNDFSTVERYVASLEVYRRVNPVQLSMNVGGADDEDELAGAGAMSNTYDGVVGNEEEEMETMGDGLDMKDEVEESEQRKKRRSKKRKNAYERDADGWCVVRN” the “soluble on expression in E. coli” value was “not soluble”.
For “MGSDKIHHHHHHMTNLLSVRDLSIALCQGQEQRYILEKVTFEIKEGETVALVGESGSGKSVTALSILQLLPFLKTLYQSGEILFNDKDLLKQKEEDLRKVRGKDIAMIFQEPMTALNPLHNVERQIGEVLKMHSDMTNQSLRAHIIDLLTQVGIHEPQKRLGSFPHELSGGQRQRVMIAMALANNPRLLIADEPTTALDVTVQARILELLVHLKKQNNMSMLFITHNLAIVRCIADRVYVMRKGKIVESAPIDQLFANAQKPYTKQLLAAEPKGYPLQADKSAPILMQGKKVRVWFPIKKGLLRRTKGYIKAVQDMDVTIRVGQTLGVVGESGSGKTTLGLSLIRMLSSKGQIIFDDIDISNFTFKKMRSLRRHIQIVFQDPFGSLSPRMSVSEIIAEGLSIHEPKLSYSERNDRVIEALHEVNLDPSTRYRYPHEFSGGQRQRIALARAIILKPRFIMLDEPTSSLDVSVQAQIISLLLHLQKKYHLGYLFISHDLKVIKALAHEVIVMRNGEMVEYGSADRIFSCPQNTYTQSLMAAAFALESDRL”, the “soluble on expression in E. coli” value was “not soluble”.
For “GKKQEPFEQVTIDIEEQHQGSVMEALGIRKGEVKDMIPDGKGRTRLEYVIPSRGLIGFRNEFMTMTSGTGLLYSSFSHYDDVKLGEIGQRKNGVLISNATGKALAYALFGLQERGKLMIEHGVDVYEGQI”, the “soluble on expression in E. coli” value was “not soluble”.
In the case of “SYRSRSAFKLLEVNERHQILRPGLRVLDCGAAPGAWSQVAVQKVNAAGTDPSSPVGFVLGVDLLHIFPLEGATFLCPADVTDPRTSQRILEVLPGRRADVILSDMAPNATGFRDLDHDRLISLCLTLLSVTPDILQPGGTFLCKTWAGSQSRRLQRRLTEEFQNVRIIKPEASRKESSEVYFLATQYHGRKGTVKQ”, the “soluble on expression in E. coli” value is reported as “soluble”.
With “RGRGPEAAAQEEAEEVGRSGPGRRAAQRRSPGLAMLLASAVVVWEWLNEHGRWRPYSPAVSHHIEAVVRAGPRAGGSVVLGQVDSRLAPYIIDLQSMNQFRQDTGTLRPVRRNYYDPSSAPGKGVVWEWENDNGSWTPYDMEVGITIQHAYEKQHPWIDLTSIGFSYVIDFNTMGQINRQTQRQRRVRRRLDLIYPMVTGTLPKAQSWPVSPGPATSPPMSPCSCPQCVLVMSVKAAVVNGSTGPLQLPVTRKNMPPPGVVKLPPLPGSGAKPLDSTGTIRGPLKTAPSQVIRRQASSMPTGTTMGSPASPPGPNSKTGRVALATLNRTNLQRLAIAQSRVLIASGVPTVPVKNLNGSSPVNPALAGITGILMSAAGLPVCLTRPPKLVLHPPPVSKSEIKSIPGVSNTSRKTTKKQAKKGKTPEEVLKKYLQKVRHPPDEDCTICMERLTAPSGYKGPQPTVKPDLVGKLSRCGHVYHIYCLVAMYNNGNKDGSLQCPTCKTIYGVKTGTQPPGKMEYHLIPHSLPGHPDCKTIRIIYSIPPGIQGPEHPNPGKSFSARGFPRHCYLPDSEKGRKVLKLLLVAWDRRLIFAIGTSSTTGESDTVIWNEVHHKTEFGSNLTGHGYPDANYLDNVLAELAAQGISEDSTAQEKD” the “soluble on expression in E. coli” value was “soluble”.
For “MSIEQYFQHLACAPTSLNLIWFTVEMSELAKELPSKEAKTGLIKSIAHILHDEKFEKIRGDEAMLNLFEMLAKCSTKIGGAEVYKQAYGLDLFNYYKEFYFQWAHECGKIKSVSQFRTVFFLARSQLFYHLSPISIEKDFENIFQQYFGKLSMHHCLERTETLNKLFAGCSVEEFASAENVMSFGNSRELSGRSVDVRPNHRVLEVARGTMMSSSEISPNKSDSSVLLNKSPPTNSPIIKFGTYPKIHLQNVSSSMLNARRRQLTATVTTVDSQKGKPTFANETY”, the “soluble on expression in E. coli” value was “not soluble”.
With “MGSDKIHHHHHHMMRDTPLLHRDDPAKDPLVGHIKVTREDWVNTARDVLVNSGVAQVKIATLAGRLDVSRSSFYWYFQNRDELLSALLQDWQTRNTRSITDHCARPSRSIAQALCNFFRCFVDTRQFDPGLDFAIREWARRNEDVRDAIDAADTARLDAVRAMFDRHDYAPEDADARARILYFMQLGYHALDLREDMETRMSRVSAYVLGFTGISPQNTDIEEFLDYVGDLAPHGISGASQRA” the “soluble on expression in E. coli” value was “not soluble”.
In the case of “MAHHHHHHMEMGGDIVGNIMMLELETFSDEEAAYLTSPDAPHSHIVDEVVEALFENVCTAPRRCSWNTPSVRPEWKEEFRFAGEWWLSMRVLPATVNPNEYHPPLIPFLLRNVQTENQFIADLALHMRQRSSVLSLLHMDHISITPDRASVLLFEGILRNEAQNLECLSLSFCEVGAATLLLILCGLNQCRSIQPQLRYLNLSYNWIDASCSNMMAMLLERTSIRRLSLHGNRFGGSDITSFYDFLLQGCSLLEELDLSYTALTCAEVCALISCLPRMRNLEVLLLDGVEVPDNKAAALSTAIRKSNLIHVSLKGIIACNGEAYLHRIHKACQRNRAARDFLKDRSTLRYFSEGGSFFEAFARRTCEMQRLDDRALPVTYRPFVTNDPSLLPAKNL”, the “soluble on expression in E. coli” value is reported as “not soluble”.
For “MRKKPLTIFSDGTLTRRENTLYFESAKGRKPLAIEGIYDIYIYGHVNITSQALHYIAQKGILIHFFNHYGYYDGTFYPRETLLSGDLIIRQAEHYLNKEKRLFLAKSFVTGGTKNMERNLKNWGIKAKLSDYLDELNDARKITEIMNVEARIRQEYYAKWDENLPEEFKIVKRTRRPPKNEMNALISFLNSRLYATIITEIYNTQLAPTISYLHEPSERRFSLSLDLSEIFKPIIADRVANRLVKKGSLKKEHFREDLNGVLLTEEGMKIVTKAYNEELQKSVKHPKIGSNVTRQRLIRLEAYKLIKHLVGVEEYKPLVAWF”, the “soluble on expression in E. coli” value was “soluble”.
For “MEQFRNIGIIGRLGSVQVLDTVRRLKRFLLDRHLHVILEETIAEVLPGHGLQTSSRKMLGEVCDMVIVVGGDGSLLGAARALARHNVPVLGINRGSLGFLTDIRPDELEVKCAEVLDGHYLVENRFLLQAEVRRHGEAIGQGDALNDVVLHPGKSTRMIEFEIYIDGQFVCSQKADGLIVATPTGSTAYALSAGGPIMHPKLDAIVIVPMYPHTLSGRPIVVDGNSELKIVVSKDMTIYPQVSCDGQNHFTCAPGDTITVSKKPQKLRLIHPLDHNYYEVCRTKLGWGSRLGGGGDLEHHHHHH”, the “soluble on expression in E. coli” value was “soluble”.
With “MGSDKIHHHHHHMRLTILGSSGSVPAPGNPASGYLLTSPDAPAVIMDMGPGVLAAVQEIQDPADAHVIFSHLHTDHCADFASLMVWRRFHPTLAAKSRNLLFGPEDTPNRLGRLSSDEPDGVDDMSDTFAFDAWEERKPELIDNFTVTPFRVVHPIETYALRVEEHRTGASITYSGDSAYTEALIDAARNVDIFLCEATWGTSCDDKAPGMHMCGQDAGRIAAAAGVKKLIITHVPPWIDAEATVAAAAEHFDGPIELARSGMVIEF” the “soluble on expression in E. coli” value was “not soluble”.
For “MGSDKIHHHHHHMTSSAPLIDFAHDLRYEDIPVHVRSIVREQIIATVGSILGGAQLPVAKSFEQSILATFGRGESSAFGAGTGMSAASAALYNSGLAQLLDWEDWVLISHVGAAVVPVAWALAEERGLRLNDVIVAVTIGNEIAGRTSRAIQRGAYLGNGLPNHQIELPLVAGRLLGLDRRQLGYALGHSCYMAMENCPVGWTTDSKLLVNGLPAMWAIASANMARQDIVGRGDIVEHPAGYLATVSESIDFKELTRDIGVKWYTETLSTKKHAGCAYNLPAAECAMSIREEIAPEDVERIVVECSTATLYVGGRYDDFEPGVLDAYEQGLLTHVGLCFDTKFCVAAAYVHGDLIHEQYLVENATDARVKALYGKISLVPSERLQKAQFQDFKYGATVTVHGRDGRTATRTVEQMLGGYDRPFDHATKLADGARGLLPPEAVDGIVARLRDETGNPLASEISTLINGAP”, the “soluble on expression in E. coli” value was “not soluble”.
For “MERFLRLGGLGGNLGTFGANPQDSNQVDTSETVYISSLALLKMLKHGRAGVPMEVMGLMLGEFVDDYTVNVIDVFAMPQSGTGVSVEAVDPVFQAKMLDMLKQTGRPEMVVGWYHSHPGFGCWLSGVDINTQQSFEALSDRAVAVVVDPIQSVKGKVVIDAFRTINPQSMALNQEPRQTTSNLGHLQKPSIQALIHGLNRHYYSIPIAYRTHDLEQKMLLNLNKLSWMDAVSVENYSKCGEQNKEHLKAMLKLAKNYKKALEDEKNMTDQELAIKNVGKMDPKRHIADEVSKMLNDNIVQSLAGMMATTSLQ”, the “soluble on expression in E. coli” value was “not soluble”.
In the case of “MAMGRTTQFTLDEVAKHADKDSCWLVIDGKVYAVEKFLNEHPGGEDVLLETAGRDATREFEDVGHSKSAREQLKEFYIGDVREPTAEELAAKRAVQASAAAERRDGDGVRANGLGKERLFAGGAFGAEPLSGGSSTWTLLKRLFVPVCIAVLVYLVREYSKQVQTGG”, the “soluble on expression in E. coli” value is reported as “not soluble”.
